Experiments:
[1] = format: in vitro ADME; conditions: human, microsomes, 0.5 h
Protocol: 0.1 M phosphate buffer (pH 7.4) and S100A8/A9 peptide ([…]) or rCT-S100A8/A9 protein (10 μg/mL) were added to human liver microsomes (0.5 mg/mL). After incubation at 37° C. for five minutes, the NADPH-generating system solution was also added and incubated again at 37° C. for 30 minutes. To terminate the reaction, acetonitrile containing an internal standard (clopramide) was added, and the resulting mixture was centrifuged for five minutes (14,000 rpm, 4° C.). The supernatant was then injected into an LC-MS/MS system to analyze the microsomal stability of the tested substances.

[2] = DSS-induced acute colitis mouse model; format: in vivo, mice; conditions: treatment for three consecutive days
[3] = design: species or system mice; conditions: mouse, in vivo
Protocol: FIGS. 6A-6D show the effect of rCT-S100A8/A9 peptide on colon targeting. […] Mice were exposed to 3% DSS for six days and evaluated on day 6 (left). For IB with αITGA6, αITGB1, or αActin, multiple organ harvests were used and ITGA6+ or ITGB1+ cell numbers were analyzed through FACS. […] Intraperitoneal administration of rCT-S100A8/9 conjugated with Cy5.5 for one hour and colon harvest. Colon harvests were used for IB including αITGA6, αITGB1, or αActin and ITGA6+ or ITGB1+ cell numbers were analyzed through FACS. […] Mice were treated with 3% DSS for six days and administered 1, 2, or 3 doses of Texas Red conjugated with rCT-S100A8/9. Colons were harvested in a time-dependent manner and analyzed for Texas Red+ cell numbers through FACS. Data is representative of three independent experiments with similar results. Data is shown as the mean±SD of three experiments;
S100A8 or S100A9 peptides or rCT-S100A8/9 was conjugated to Texas Red using the Texas Red® Conjugation Kit (Fast)-Lightning-Link (Abcam) to quantitatively measure cellular uptake in macrophages and pharmacodynamics in a colitis model. Cells were washed thoroughly and quickly with pulse spins and immediately acquired for analysis on FACSCalibur (BD Biosciences, San Jose, CA, USA). Data was plotted using CellQuest software (BD Biosciences) and analyzed using FlowJo software (Tree Star, Ashland, OR, USA). […]

[4] = tested on: OxaR-HCT116; test: Co-IP and Western blot in parental and OxaR-HCT116 cells stimulated with rS100A8/9; format: cell-based
Protocol: FIGS. 11A-11F show rCT-S100A8/A9 ameliorated oxaliplatin-resistant HCT116 xenograft tumor growth. […] Each vertical bar represents the mean±SD of cell viability at each dose. Data is shown as the mean±SD of six experiments. […] WCLs were used for IB including αTLR4, αRAGE, αS100A8, αS100A9, or αActin. […] HCT116 cells were injected subcutaneously into the flanks of nude mice. Tumor length and width were measured using calipers, and tumor volume was calculated every 3 days for 30 days. Representative images of tumors from mice treated with rCT-S100A8/9 on day 15 (middle). Statistical significance was determined by two-way analysis of variance (ANOVA) with Tukey's post hoc test. *P<0.05, ***P<0.001 compared to rVehicle. […] WCLs were used for IB including αTLR4, αRAGE, αS100A8, αS100A9, or αActin. […] Tumors were stained with H&E. Data is representative of seven independent experiments with similar results (FIGS. 11B, 11C, and 11E);
293T, BMDMs, and THP-1 cells were treated as indicated and processed for analysis by GST pulldown, Western blotting, and co-IP analysis. For GST pulldown, 293T cells were harvested and lysed in an NP-40 buffer including a complete protease inhibitor cocktail (Roche, Basel, Switzerland). After centrifugation, the supernatant was pre-cleared using protein A/G beads for two hours at 4° C. The pre-cleared lysates were mixed with a 50% slurry of glutathione-conjugated Sepharose beads (Amersham Biosciences, Amersham, UK), and binding reactions were performed for four hours at 4° C. by incubating the lysates at 4° C. The precipitate was extensively washed with a lysis buffer. Proteins bound to the glutathione beads were eluted by boiling for five minutes in a sodium dodecyl sulfate (SDS) loading buffer. For IP, cells were harvested and lysed in an NP-40 buffer supplemented with a complete protease inhibitor cocktail (Roche, Switzerland). After pre-clearing with protein A/G agarose beads for one hour at 4° C., whole cell lysates were used for IP using the indicated antibodies. Typically, 1 to […] of a commercial antibody was added to 1 ml of the cell lysate, and the resulting mixture was incubated for 8 to 12 hours at 4° C. After adding protein A/G agarose beads for six hours, immunoprecipitates were extensively washed with a lysis buffer and eluted with an SDS loading buffer by boiling for five minutes. For immunoblotting (IB), polypeptides were analyzed by SDS-polyacrylamide gel electrophoresis and transferred to polyvinylidene difluoride (PVDF) membranes (Bio-Rad, Hercules, CA, USA). Immunodetection was performed using specific antibodies. Antibody binding was visualized by chemiluminescence (ECL; Millipore, Burlington, MA, USA) and detected using a Vilber chemiluminescence analyzer (Fusion SL 3; Vilber Lourmat). […]

[5] = parental and OxaR-HCT116 cells, Western blot

B1: TWYKIAFQRNRKTWYKIAFQRNRKTWYKIAFQRNRKTWYKIAFQRNRKTWYKIAFQRNRKGGFLVIKGGAHKSHKGGITIITFGGGHHGGFLVIKGGAHKSHKGGITIITFGGGHHGGFLVIKGGAHKSHKGGITIITFGGGHHGG (protein)
chain: TWYKIAFQRNRKTWYKIAFQRNRKTWYKIAFQRNRKTWYKIAFQRNRKTWYKIAFQRNRKGGFLVIKGGAHKSHKGGITIITFGGGHHGGFLVIKGGAHKSHKGGITIITFGGGHHGGFLVIKGGAHKSHKGGITIITFGGGHHGG
modifications: N-terminal 6xHis tag
With B1 the “microsomal stability, remaining” value [1] was 92%, the “survival rate by treatment frequency” value [2] was “highest survival rate” and the “retained in the colon” value [3] was 50%. The S100-PRR interactions ([4]; OxaR-HCT116, recombinant S100A8/A9 stimulated, 10, 20, 50 μg/ml) was “inhibited by increasing the concentration of rCT-S100A8/A9”, the “phosphorylation of EGFR, AKT, and NF-κB” value ([4]; parental and OxaR CRC cells) was “decreased” and the “expression of epithelial marker (E-cadherin)” value [4, 5] was “increase”. The “expression of mesenchymal markers (N-cadherin and vimentin)” value [4, 5] was “significant decrease”.

Reference: patent US20250154215A1, “PHARMACEUTICAL COMPOSITION FOR TREATING COLITIS OR COLORECTAL CANCER COMPRISING COLON-TARGETED S100A8/A9-DERIVED SPECIFIC PEPTIDE” (Industry-University Cooperation Foundation Hanyang …, priority 2023, published 2025)
